Laboratory results: patent US20040229797A1

Biological target: HA-tagged Filamin 1 (HA-Filamin 1)
Test: cell-based or functional assay

## S-FILIP (short form Filamin-interacting protein) (from UniProt Q8K4T4 248-965)
  relative amount of recombinant Filamin 1 and GFP: 1.8
